# Measured values reported in patent US20200317768A1 (published 2020).
# Changes are numbered by the printed parent chain.
# B1: M103205H795-MY450 / M103202L889-SK1 (antibody, human IgG1, kappa)
# heavy: QVTLKESGPVLVKPTETLTLTCTVSGIDLSHDDISWVRQAPGKGLEWVGIISYAGSTYYASWAKGRLTISKDTSKNQVVLTMTNMDPVDTATYYCARGVPAYSHGGDLWGQGTLVTVSSASTKGPSVFPLAPSSKSTSGGTAALGCLVKDYFPEPVTVSWNSGALTSGVHTFPAVLQSSGLYSLSSVVTVPSSSLGTQTYICNVNHKPSNTKVDKKVEPKSCDKTHTCPPCPAMELLTGPSVFLFPPKPKDTLMISRTPEVTCVVVDVSDEDPEVKFNWYVDGVEVHNAKTKPREEQYNSTYRVVSVLTVLHQDWLNGKEYKCKVSNKALPKPIEKTISKAKGQPREPQVYTLPPSREEMTKNQVSLTCLVKGFYPSDIAVEWESNGQPENNYKTTPPVLDSDGSFFLYSKLTVDKSRWQQGNVFSCSVMHEALHNHYTQKSLSLSP
# light: DIVMTQSPATLSLSPGERATLSCTSSQSVYHANWLSWFQQKPGQPPKLLIYWASTLAYGVPSRFSGSGSGTDFTLTISSLQPEDAATYYCAGGYGGGRYAFGQGTKVEIKRTVAAPSVFIFPPSDEQLKSGTASVVCLLNNFYPREAKVQWKVDNALQSGNSQESVTEQDSKDSTYSLSSTLTLSKADYEKHKVYACEVTHQGLSSPVTKSFNRGEC
# notes: substitution positions are EU numbers
# B2: M103205H795-MY451 / M103202L889-SK1 (antibody, human IgG1, kappa)
# heavy: B1 heavy with M234N
# light: B1 light
# notes: as for B1
# B3: M103205H795-MY452 / M103202L889-SK1 (antibody, human IgG1, kappa)
# heavy: B1 heavy with M234Q
# light: B1 light
# notes: as for B1
# B4: M103205H795-MY453 / M103202L889-SK1 (antibody, human IgG1, kappa)
# heavy: B1 heavy with M234R
# light: B1 light
# notes: as for B1
# B5: M103205H795-MY454 / M103202L889-SK1 (antibody, human IgG1, kappa)
# heavy: B1 heavy with M234S
# light: B1 light
# notes: as for B1
# B6: M103205H795-MY455 / M103202L889-SK1 (antibody, human IgG1, kappa)
# heavy: B1 heavy with M234T
# light: B1 light
# notes: as for B1
# B7: M103205H795-MY456 / M103202L889-SK1 (antibody, human IgG1, kappa)
# heavy: B1 heavy with M234V
# light: B1 light
# notes: as for B1
# B8: M103205H795-MY457 / M103202L889-SK1 (antibody, human IgG1, kappa)
# heavy: B1 heavy with M234W
# light: B1 light
# notes: as for B1
# B9: M103205H795-MY458 / M103202L889-SK1 (antibody, human IgG1, kappa)
# heavy: B1 heavy with M234Y
# light: B1 light
# notes: as for B1
# What was measured:
# Assay in all cases: SPR (BIACORE), 25 C, antibody captured, FcgR as analyte; KD of SG1 divided by KD of variant;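 also: relative to parent M103205H795-SG1 carrying the SG1 human heavy chain constant region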
# [1] = biological target: T1, human FcγRIIaH extracellular domain, His-tagged (human, UniProt P12318 34-217)
# T1 construct: also called human FcγRIIa (type H); FcgRIIaH; not shown: C-terminal His-tag
# T1 sequence: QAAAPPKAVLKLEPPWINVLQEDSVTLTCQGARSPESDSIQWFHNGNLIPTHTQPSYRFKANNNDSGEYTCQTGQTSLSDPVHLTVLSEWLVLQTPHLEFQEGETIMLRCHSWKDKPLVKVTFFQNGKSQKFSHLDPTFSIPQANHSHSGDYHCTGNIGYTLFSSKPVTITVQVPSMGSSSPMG
# Procedure: (§1) The kinetic analysis of interactions between these antibodies and FcγR was carried out using BIACORE® T200 or BIACORE® 4000 (GE Healthcare). HBS-EP+ (GE Healthcare) was used as the running buffer, and the measurement temperature was set to 25° C. A chip produced by immobilizing Protein A. Protein A/G or mouse anti-human IgG kappa light chain (BD Biosciences) onto a Series S Sensor Chip CM4 or CM5 (GE Healthcare) by the amine-coupling method was used. […] After the measurement, the antibody captured on the chip was washed off by allowing reaction with 10 mM glycine-HCl, pH1.5 and 25 mM NaOH so that the chip was regenerated and used repeatedly. The sensorgrams obtained as measurement results were analyzed by the 1:1 Langmuir binding model using the BIACORE® Evaluation Software to calculate the binding rate constant ka (L/mol/s) and dissociation rate constant kd (l/s), and the dissociation constant KD (mol/L) was calculated from these values. […] Regarding such interactions, KD values were calculated using the following 1:1 binding model described in BIACORE® T100 Software Handbook BR1006-48 Edition AE.
# [2] = biological target: T2, cynomolgus monkey FcγRIIb extracellular domain, His-tagged (cynomolgus monkey)
# T2 construct: also called cyno FcγRIIb; cynoFcγRIIb; not shown: C-terminal His-tag
# T2 chain: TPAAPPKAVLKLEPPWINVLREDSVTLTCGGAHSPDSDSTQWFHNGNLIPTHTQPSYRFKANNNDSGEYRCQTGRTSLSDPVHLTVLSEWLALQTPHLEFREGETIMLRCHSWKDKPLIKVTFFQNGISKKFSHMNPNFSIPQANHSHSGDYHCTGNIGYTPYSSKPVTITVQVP
# Procedure: as §1
# [3] = biological target: T3, cynomolgus monkey FcγRIIa3 extracellular domain, His-tagged (cynomolgus monkey)
# T3 construct: also called cyno FcγRIIa3; FcgRIIa3; not shown: C-terminal His-tag
# T3 chain: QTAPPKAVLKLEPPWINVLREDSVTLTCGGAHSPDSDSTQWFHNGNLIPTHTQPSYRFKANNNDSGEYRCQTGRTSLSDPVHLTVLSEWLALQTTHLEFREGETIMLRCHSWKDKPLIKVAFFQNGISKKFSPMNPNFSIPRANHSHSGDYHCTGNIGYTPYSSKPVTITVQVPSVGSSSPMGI
# Procedure: as §1
# [4] = biological target: T4, human FcγRIIIaV extracellular domain, His-tagged (human, UniProt P08637 17-208)
# T4 construct: also called human FcγRIIIa (V158); FcgRIIIaV; not shown: C-terminal His-tag
# T4 sequence (P08637 17-208 F176V): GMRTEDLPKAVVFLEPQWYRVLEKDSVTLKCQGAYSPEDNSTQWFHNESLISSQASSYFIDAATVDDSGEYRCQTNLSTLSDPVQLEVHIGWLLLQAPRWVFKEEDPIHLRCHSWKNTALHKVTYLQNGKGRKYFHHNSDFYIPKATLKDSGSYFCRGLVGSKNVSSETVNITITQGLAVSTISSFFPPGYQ
# Procedure: as §1
# [5] = biological target: T5, cynomolgus monkey FcγRIIa2 extracellular domain, His-tagged (cynomolgus monkey)
# T5 construct: also called cyno FcγRIIa2; FcgRIIa2; not shown: C-terminal His-tag
# T5 chain: T3 chain with I127K, K130N, P133H, R142Q
# Procedure: as §1
# [6] = biological target: T6, human FcγRIIaR extracellular domain, His-tagged (human, UniProt P12318 34-217)
# T6 construct: also called human FcγRIIa (type R); FcgRIIaR; not shown: C-terminal His-tag
# T6 chain: T1 sequence with H134R
# Procedure: as §1
# [7] = biological target: T7, human FcγRIIb extracellular domain, His-tagged (human, UniProt P31994 43-217)
# T7 construct: also called FcgRIIb (human); not shown: C-terminal His-tag
# T7 sequence: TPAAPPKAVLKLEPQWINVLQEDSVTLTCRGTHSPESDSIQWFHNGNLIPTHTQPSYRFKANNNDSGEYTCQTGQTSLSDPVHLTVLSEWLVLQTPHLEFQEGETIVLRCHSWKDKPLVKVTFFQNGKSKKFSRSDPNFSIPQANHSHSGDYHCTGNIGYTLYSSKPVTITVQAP
# Procedure: as §1
# [8] = biological target: T8, cynomolgus monkey FcγRIIa1 extracellular domain, His-tagged (cynomolgus monkey)
# T8 construct: also called cyno FcγRIIa1; FcgRIIa1; not shown: C-terminal His-tag
# T8 chain: T3 chain with T95P, A121T, S128A, P133H, N135D
# Procedure: as §1
# [9] = biological target: T9, cynomolgus monkey FcγRIIIaS extracellular domain, His-tagged (cynomolgus monkey, UniProt Q8SPW2 21-206 at identity 1.00))
# T9 construct: also called cyno FcγRIIIaS; FcgRIIIaS; not shown: C-terminal His-tag
# T9 chain: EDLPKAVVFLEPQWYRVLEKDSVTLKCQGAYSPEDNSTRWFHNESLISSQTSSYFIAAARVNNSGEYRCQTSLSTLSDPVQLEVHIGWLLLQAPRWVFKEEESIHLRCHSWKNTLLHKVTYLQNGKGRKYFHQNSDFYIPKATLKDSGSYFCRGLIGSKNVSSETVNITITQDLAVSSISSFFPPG
# Procedure: as §1
Binder,KD fold (SG1 = 1) [1] [fold],KD fold (SG1 = 1) [2] [fold],KD fold (SG1 = 1) [3] [fold],KD fold (SG1 = 1) [4] [fold],KD fold (SG1 = 1) [5] [fold],KD fold (SG1 = 1) [6] [fold],KD fold (SG1 = 1) [7] [fold],KD fold (SG1 = 1) [8] [fold],KD fold (SG1 = 1) [9] [fold]
B1,5.8,6.4,7.7,0.3,4.6,9.2,9.3,2.3,0.3
B2,1.7,1.8,1.5,0.1,1.2,1.7,1.5,0.9,0.1
B3,1.9,2,1.6,0.1,1.6,1.8,1.6,0.9,0.1
B4,0.9,0.3,0.8,0.1,0.5,0.7,0.7,0.5,0.1
B5,1.7,1.3,1.2,0.1,1.6,1.4,1.5,0.8,0.1
B6,2.2,2,3.1,0.1,1.8,2.4,2.1,1,0.1
B7,4.1,3.5,5,0.2,3,3.8,4.2,1.7,0.2
B8,5.3,9,14.2,0.2,6.1,15.1,13.9,4,0.3
B9,4.3,4.2,5.7,0.2,3.2,6.5,4.6,1.8,0.3
